Test results: IntAct's records for PubMed 22087322

B1: Interleukin-10 receptor subunit alpha (Homo sapiens), Q13651 (parent)
chain: MLPCLVVLLAALLSLRLGSDAHGTELPSPPSVWFEAEFFHHILHWTPIPNQSESTCYEVALLRYGIESWNSISNCSQTLSYDLTAVTLDLYHSNGYRARVRAVDGSRHSNWTVTNTRFSVDEVTLTVGSVNLEIHNGFILGKIQLPRPKMAPANDTYESIFSHFREYEIAIRKVPGNFTFTHKKVKHENFSLLTSGEVGEFCVQVKPSVASRSNKGMWSKEECISLTRQYFTVTNVIIFFAFVLLLSGALAYCLALQLYVRRRKKLPSVLLFKKPSPFIFISQRPSPETQDTIHPLDEEAFLKVSPELKNLDLHGSTDSGFGSTKPSLQTEEPQFLLPDPHPQADRTLGNREPPVLGDSCSSGSSNSTDSGICLQEPSLSPSTGPTWEQQVGSNSRGQDDSGIDLVQNSEGRAGDTQGGSALGHHSPPEPEVPGEEDPAAVAFQGYLRQTRCAEEKATKTGCLEEESPLTDGLGPKFGRCLVDEAGLHPPALAKGYLKQDPLEMTLASSGAPTGQWNQPTEEWSLLALSSCSDLGISDWSFAHDLAPLGCVAAPGGLLGSFNSDLVTLPLISSLQSSE
B2: Interleukin-10 receptor subunit alpha (Mus musculus), Q61727 (parent)
chain: MLSRLLPFLVTISSLSLEFIAYGTELPSPSYVWFEARFFQHILHWKPIPNQSESTYYEVALKQYGNSTWNDIHICRKAQALSCDLTTFTLDLYHRSYGYRARVRAVDNSQYSNWTTTETRFTVDEVILTVDSVTLKAMDGIIYGTIHPPRPTITPAGDEYEQVFKDLRVYKISIRKFSELKNATKRVKQETFTLTVPIGVRKFCVKVLPRLESRINKAEWSEEQCLLITTEQYFTVTNLSILVISMLLFCGILVCLVLQWYIRHPGKLPTVLVFKKPHDFFPANPLCPETPDAIHIVDLEVFPKVSLELRDSVLHGSTDSGFGSGKPSLQTEESQFLLPGSHPQIQGTLGKEESPGLQATCGDNTDSGICLQEPGLHSSMGPAWKQQLGYTHQDQDDSDVNLVQNSPGQPKYTQDASALGHVCLLEPKAPEEKDQVMVTFQGYQKQTRWKAEAAGPAECLDEEIPLTDAFDPELGVHLQDDLAWPPPALAAGYLKQESQGMASAPPGTPSRQWNQLTEEWSLLGVVSCEDLSIESWRFAHKLDPLDCGAAPGGLLDSLGSNLVTLPLISSLQVEE

Variants of: B1
Conditions: with fbw1a_human BTRC

Row | Variant | effect of a mutation on the interaction
1 | S319A;S323A | decreasing interaction strength
2 | S319A;S323A;S370A | disrupting interaction strength
3 | S370A | decreasing interaction strength

Variants of: B2
Conditions: with fbw1a_human BTRC

Row | Variant | effect of a mutation on the interaction
4 | S320A;S324A | decreasing interaction strength
5 | S320A;S324A;S367A | disrupting interaction strength
